The subject of this test is Aβ1-40 or Aβ1-42 SDS-resistant polymers. The test is described as follows: Dissolution of in vitro Cu^2+-induced SDS-resistant Aβ polymers. The class given is biochemical, human.

B1: proteinase K: protease (protein, UniProt P06873 106-384, looked up)
Proteinase K: AAQTNAPWGLARISSTSPGTSTYYYDESAGQGSCVYVIDTGIEASHPEFEGRAQMVKTYYYSSRDGNGHGTHCAGTVGSRTYGVAKKTQLFGVKVLDDNGSGQYSTIIAGMDFVASDKNNRNCPKGVVASLSLGGGYSSSVNSAAARLQSSGVMVAVAAGNNNADARNYSPASEPSVCTVGASDRYDRRSSFSNYGSVLDIFGPGTSILSTWIGGSTRSISGTSMATPHVAGLAAYLMTLGKTTAASACRYIADTANKGDLSNIPFGTVNLLAYNNYQA
For the molecule B1, the “degradation of SDS-resistant Aβ polymers” value was “complete degradation”.
